Reference: patent US20120324602A1

What was measured:
[1] = target: T1, actin-related protein 7 (ARP7) (Arabidopsis thaliana); experiment: TAP-MS, N-terminal GS tag
T1 sequence (Q8L4Y5 1-363, looked up): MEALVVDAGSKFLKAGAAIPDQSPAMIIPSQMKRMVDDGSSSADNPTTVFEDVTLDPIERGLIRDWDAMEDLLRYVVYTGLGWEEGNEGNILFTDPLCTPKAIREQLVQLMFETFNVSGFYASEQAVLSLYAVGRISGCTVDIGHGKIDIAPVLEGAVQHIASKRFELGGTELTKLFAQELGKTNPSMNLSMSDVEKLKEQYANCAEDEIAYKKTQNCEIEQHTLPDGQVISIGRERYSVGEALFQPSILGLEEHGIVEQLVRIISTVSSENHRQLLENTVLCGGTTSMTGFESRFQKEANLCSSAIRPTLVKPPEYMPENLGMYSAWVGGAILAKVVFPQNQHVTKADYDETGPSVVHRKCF

[2] = target: unknown protein (AT1G06500) (Arabidopsis thaliana); experiment: TAP-MS, N-terminal GS tag
[3] = target: T2, actin-related protein 4 (ARP4) (Arabidopsis thaliana); experiment: TAP-MS, N-terminal GS tag
T2 sequence (Q84M92 1-441, looked up): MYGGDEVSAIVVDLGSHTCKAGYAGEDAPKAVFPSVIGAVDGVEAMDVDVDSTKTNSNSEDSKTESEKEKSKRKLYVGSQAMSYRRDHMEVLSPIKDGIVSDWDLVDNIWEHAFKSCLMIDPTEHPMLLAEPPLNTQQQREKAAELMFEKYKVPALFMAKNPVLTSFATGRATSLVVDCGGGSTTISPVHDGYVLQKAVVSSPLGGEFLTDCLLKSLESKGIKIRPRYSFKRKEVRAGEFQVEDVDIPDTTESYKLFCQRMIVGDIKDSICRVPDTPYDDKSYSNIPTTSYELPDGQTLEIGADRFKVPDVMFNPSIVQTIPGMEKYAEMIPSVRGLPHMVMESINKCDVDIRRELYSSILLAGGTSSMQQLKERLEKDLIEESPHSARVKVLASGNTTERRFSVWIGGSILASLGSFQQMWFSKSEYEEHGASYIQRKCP

[4] = target: SWI3B (Arabidopsis thaliana); experiment: TAP-MS, N-terminal GS tag
[5] = target: expressed protein, similar to At4g22320 (AT5G55210) (Arabidopsis thaliana); experiment: TAP-MS, N-terminal GS tag
[6] = target: T3, SWIRM domain-containing protein (SWI3C) (Arabidopsis thaliana); experiment: TAP-MS, N-terminal GS tag
T3 sequence (Q9XI07 1-807, looked up): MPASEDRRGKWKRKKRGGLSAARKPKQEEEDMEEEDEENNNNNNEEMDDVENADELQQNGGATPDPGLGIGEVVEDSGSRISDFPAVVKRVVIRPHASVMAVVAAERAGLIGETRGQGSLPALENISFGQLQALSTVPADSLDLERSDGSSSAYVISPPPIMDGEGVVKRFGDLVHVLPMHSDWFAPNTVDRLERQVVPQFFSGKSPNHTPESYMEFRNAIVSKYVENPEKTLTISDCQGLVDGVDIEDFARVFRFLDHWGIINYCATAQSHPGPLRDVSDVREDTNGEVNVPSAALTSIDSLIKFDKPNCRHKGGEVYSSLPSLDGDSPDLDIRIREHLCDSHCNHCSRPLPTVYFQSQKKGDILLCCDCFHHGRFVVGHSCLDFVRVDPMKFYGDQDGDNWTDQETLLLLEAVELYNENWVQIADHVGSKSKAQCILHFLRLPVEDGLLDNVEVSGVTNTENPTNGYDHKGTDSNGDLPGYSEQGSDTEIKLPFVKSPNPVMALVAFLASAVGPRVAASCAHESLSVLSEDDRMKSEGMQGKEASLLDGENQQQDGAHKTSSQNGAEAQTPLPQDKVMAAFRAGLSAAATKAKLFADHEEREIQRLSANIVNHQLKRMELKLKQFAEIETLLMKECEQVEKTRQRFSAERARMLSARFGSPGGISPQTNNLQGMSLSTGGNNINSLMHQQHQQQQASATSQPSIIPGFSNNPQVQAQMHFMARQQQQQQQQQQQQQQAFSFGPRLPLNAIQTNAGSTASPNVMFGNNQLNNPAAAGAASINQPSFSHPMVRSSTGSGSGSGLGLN

[7] = target: CRU1 (CRUCIFERINA) (Arabidopsis thaliana); experiment: TAP-MS, N-terminal GS tag
[8] = target: transcription factor (AT3G18380) (Arabidopsis thaliana); experiment: TAP-MS, N-terminal GS tag
[9] = target: SWI3A (Arabidopsis thaliana); experiment: TAP-MS, N-terminal GS tag
[10] = target: unknown, similar to At5g55210 (AT4G22320) (Arabidopsis thaliana); experiment: TAP-MS, N-terminal GS tag
[11] = target: expressed protein, similar to At3g03460 (AT5G17510) (Arabidopsis thaliana); experiment: TAP-MS, N-terminal GS tag
[12] = target: electron carrier (AT1G32730) (Arabidopsis thaliana); experiment: TAP-MS, N-terminal GS tag
[13] = target: DNA-binding bromodomain-containing protein, similar to At1g20670 (AT5G55040) (Arabidopsis thaliana); experiment: TAP-MS, N-terminal GS tag
[14] = target: CRU3 (CRUCIFERIN 3) (Arabidopsis thaliana); experiment: TAP-MS, N-terminal GS tag
[15] = target: CKA2 (casein kinase II alpha chain 2) (Arabidopsis thaliana); experiment: TAP-MS, N-terminal GS tag
[16] = target: BSH (Arabidopsis thaliana); experiment: TAP-MS, N-terminal GS tag
[17] = target: SWI3D (Arabidopsis thaliana); experiment: TAP-MS, N-terminal GS tag
[18] = target: SNF2 protein (BRM) (Arabidopsis thaliana); experiment: TAP-MS, N-terminal GS tag
[19] = target: CHR12 (Arabidopsis thaliana); experiment: TAP-MS, N-terminal GS tag
[20] = target: RD21 (RESPONSIVE TO …ON 21) (Arabidopsis thaliana); experiment: TAP-MS, N-terminal GS tag
[21] = target: LFR (armadillo-repeat protein) (Arabidopsis thaliana); experiment: TAP-MS, N-terminal GS tag
[22] = target: DNA-binding bromodomain-containing protein (AT1G20670) (Arabidopsis thaliana); experiment: TAP-MS, N-terminal GS tag
[23] = target: T1, actin-related protein 7 (ARP7) (Arabidopsis thaliana); experiment: TAP-MS, C-terminal GS tag
[24] = target: unknown protein (AT1G06500) (Arabidopsis thaliana); experiment: TAP-MS, C-terminal GS tag
[25] = target: T2, actin-related protein 4 (ARP4) (Arabidopsis thaliana); experiment: TAP-MS, C-terminal GS tag
[26] = target: SWI3B (Arabidopsis thaliana); experiment: TAP-MS, C-terminal GS tag
[27] = target: expressed protein, similar to At4g22320 (AT5G55210) (Arabidopsis thaliana); experiment: TAP-MS, C-terminal GS tag
[28] = target: T3, SWIRM domain-containing protein (SWI3C) (Arabidopsis thaliana); experiment: TAP-MS, C-terminal GS tag
[29] = target: SWI3A (Arabidopsis thaliana); experiment: TAP-MS, C-terminal GS tag
[30] = target: expressed protein, similar to At3g03460 (AT5G17510) (Arabidopsis thaliana); experiment: TAP-MS, C-terminal GS tag
[31] = target: electron carrier (AT1G32730) (Arabidopsis thaliana); experiment: TAP-MS, C-terminal GS tag
[32] = target: DNA-binding bromodomain-containing protein, similar to At1g20670 (AT5G55040) (Arabidopsis thaliana); experiment: TAP-MS, C-terminal GS tag
[33] = target: isocitrate dehydrogenase (AT5G03290) (Arabidopsis thaliana); experiment: TAP-MS, C-terminal GS tag
[34] = target: BSH (Arabidopsis thaliana); experiment: TAP-MS, C-terminal GS tag
[35] = target: SWI3D (Arabidopsis thaliana); experiment: TAP-MS, C-terminal GS tag
[36] = target: SNF2 protein (BRM) (Arabidopsis thaliana); experiment: TAP-MS, C-terminal GS tag
[37] = target: DNA-binding bromodomain-containing protein (AT1G58025) (Arabidopsis thaliana); experiment: TAP-MS, C-terminal GS tag
[38] = target: RD21 (RESPONSIVE TO …ON 21) (Arabidopsis thaliana); experiment: TAP-MS, C-terminal GS tag
[39] = target: LFR (armadillo-repeat protein) (Arabidopsis thaliana); experiment: TAP-MS, C-terminal GS tag
[40] = target: DNA-binding bromodomain-containing protein (AT1G20670) (Arabidopsis thaliana); experiment: TAP-MS, C-terminal GS tag

A N-GS (times co-purified) [1] of 2, a N-GS (times co-purified) [2] of 2 and a N-GS (times co-purified) [3] of 2 were found for GS-Swp73B in this work. For the same substance, the N-GS (times co-purified) [4] was 2, the N-GS (times co-purified) [5] was 2 and the N-GS (times co-purified) [6] was 3. For the same substance, the N-GS (times co-purified) [7] was 1, the N-GS (times co-purified) [8] was 2 and the N-GS (times co-purified) [9] was 3. For the same substance, the N-GS (times co-purified) [10] was 1, the N-GS (times co-purified) [11] was 2 and the N-GS (times co-purified) [12] was 2. The N-GS (times co-purified) [13] was 1, the N-GS (times co-purified) [14] was 1 and the N-GS (times co-purified) [15] was 1. The N-GS (times co-purified) [16] was 2, the N-GS (times co-purified) [17] was 3 and the N-GS (times co-purified) [18] was 2. It also gave a N-GS (times co-purified) [19] of 1, a N-GS (times co-purified) [20] of 2 and a N-GS (times co-purified) [21] of 2. For the same substance, the N-GS (times co-purified) [22] was 3.

A C-GS (times co-purified) [23] of 2, a C-GS (times co-purified) [24] of 1 and a C-GS (times co-purified) [25] of 1 were found for Swp73B-GS in this work. For the same substance, the C-GS (times co-purified) [26] was 2, the C-GS (times co-purified) [27] was 2 and the C-GS (times co-purified) [28] was 1. It also gave a C-GS (times co-purified) [29] of 2, a C-GS (times co-purified) [30] of 2 and a C-GS (times co-purified) [31] of 2. The C-GS (times co-purified) [32] was 1, the C-GS (times co-purified) [33] was 1 and the C-GS (times co-purified) [34] was 2. The C-GS (times co-purified) [35] was 1, the C-GS (times co-purified) [36] was 1 and the C-GS (times co-purified) [37] was 1. For the same substance, the C-GS (times co-purified) [38] was 2, the C-GS (times co-purified) [39] was 2 and the C-GS (times co-purified) [40] was 2.
